According to publication PMC4877046, “TrmBL2 from Pyrococcus furiosus Interacts Both with Double-Stranded and Single-Stranded DNA” (PLoS ONE, 2016):

Experiments:
TrmBL2 [1] = molecular target: T1, TrmBL2 (Pyrococcus furiosus, UniProt Q8U3H1 1-264); assay: magnetic tweezers (persistence length); conditions: half-coverage, Hill coefficient 3.0 +/- 0.33; EMSA: PBS, 10 nM DNA, 1 h, room temperature, 8% PAGE in PBS; magnetic tweezers: PBS pH 7.4, 5 mM NaN3, room temperature
T1 sequence: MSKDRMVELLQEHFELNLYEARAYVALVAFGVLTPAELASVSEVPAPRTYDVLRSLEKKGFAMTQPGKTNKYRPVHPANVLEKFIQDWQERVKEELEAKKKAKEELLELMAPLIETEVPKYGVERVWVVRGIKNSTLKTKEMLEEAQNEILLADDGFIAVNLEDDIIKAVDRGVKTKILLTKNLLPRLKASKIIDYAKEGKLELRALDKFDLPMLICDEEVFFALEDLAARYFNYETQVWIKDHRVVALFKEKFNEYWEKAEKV

TrmBL2 [2] = molecular target: T1, TrmBL2; assay: EMSA; apparent Kd, Hill fit, Hill coefficient 2.9 +/- 0.4; Fig 6 legend gives 2.0 uM; EMSA: PBS, 10 nM DNA, 1 h, room temperature, 8% PAGE in PBS; magnetic tweezers: PBS pH 7.4, 5 mM NaN3, room temperature; conditions: protein: recombinant; chain copies: 2; label: 5'-Cy5
TrmBL2 [3] = molecular target: T1, TrmBL2; assay: EMSA; apparent Kd, Hill fit, Hill coefficient 4.4 +/- 0.6; Fig 6 legend gives 1.0 uM; EMSA: PBS, 10 nM DNA, 1 h, room temperature, 8% PAGE in PBS; magnetic tweezers: PBS pH 7.4, 5 mM NaN3, room temperature; conditions: protein: recombinant; chain copies: 2; label: 5'-Cy5 on S1; blunt
[4] = molecular target: the molecule itself; assay: SEC; gel filtration on a 60 ml Superdex 200 column, 40 mM HEPES pH 7.5, 150 mM NaCl; last step of the purification

With dsDNA tether for magnetic tweezers the K half (TrmBL2 [1]) was 300 nM.

B1: 60mer ssDNA (ssDNA)
DNA: GATATAATATACCTATATCAATGGCCTCCCACGCATAAGCGCAGATACGTTCTGAGGGAA
Work on B1 yielded a Kd (TrmBL2 [2]) of 2100 ± 100 nM.

B2: 60mer dsDNA (dsDNA)
DNA 1: B1 DNA
DNA 2: TTCCCTCAGAACGTATCTGCGCTTATGCGTGGGAGGCCATTGATATAGGTATATTATATC
With B2 the Kd (TrmBL2 [3]) was 1070 ± 30 nM.

B3: TrmBL2 from Pyrococcus furiosus (natural protein, UniProt Q8U3H1 1-264, looked up)
chain: T1 sequence
notes: TrmBL2 (30.6 kDa) from Pyrococcus furiosus; This E. coli material is dimeric by gel filtration; also called archaeal "TrmB-like" protein TrmBL2; source: E.coli BL21 (DE3), purified (heating to 80°C, Q-Sepharose, Superdex 200)
With B3 the “stoichiometry N” value [4] was 2.
